From US11643467B2, “Monoclonal antibody anti-FGFR4” (EXIRIS S.R.L., priority 2017, dated 2023)

Key:
[1] = tested on: FGFR4 signalling pathway (CYP7A1, CTGF mRNA)
[2] = tested on: FGFR4-dependent phosphorylation of FRS2; experiment: Western blot of FGF19-induced FRS2/FGFR4 phosphorylation in HCC cells; assay type: cell-based, human; details: Huh7; antibodies 100 or 200 ug/mL, BLU9931 0.1 uM or 1 uM; FIG. 21
Method: FIG. 21. Inhibition of FGF19-dependent FGFR4 and FRS2 phosphorylation in Huh7 cells treated with the anti-FGFR4 chimeric antibodies analyzed by Western Blot. Cells were treated with 100 or 200 ug/mL of each antibody, with 0.1 uM or 1 uM BLU9931, or with PBS prior of the addition of FGF19/heparin under the experimental conditions described in the Example 8.
FIG. 31. […] (A) Graph of the absorbance values at 450 nm obtained from a FGFR4-Fc-dependent solid phase binding assay, as a function of the concentration of ab41948. Serial 1:3 dilutions (10 experimental points from 0.00005 ug/mL to 1 ug/mL) were tested in triplicate on the extracellular regions of FGFR4 fused with human Fc. The continuous line is the experimental one while the dashed line is that obtained by fitting experimental data to the “one site binding” equation. […] Inhibition curves were derived by 4P logistic fitting of the experimental data with the KaleidaGraph software, based on the residual absorbance at 450 nm (% of PBS control) at increasing antibody concentrations (1:3 serial dilutions from 0.001 to 10 ug/mL). […]
BLU9931 was included as positive control Ih before cell lysis at concentrations of […]. Total protein lysates in SDS were prepared and analyzed by Western Blot using an anti-phospho-FRS2 antibody (Tyrl96, Cell Signalling), an anti-FRS2 antibody (LSBio) and an anti-GAPDH antibody (Sigma-Aldrich). […]

Row | Compound | increase of CTGF expression [1] | reduction of CYP7A1 expression [1] | inhibition of FGF19-induced FGFR4 and FRS2 phosphorylation [2]
1 | FGF19: recombinant FGF19 (Peprotech), FGFR4 ligand | about 2.5 fold | about 5 fold | 
2 | C=CC(=O)Nc1cccc(C)c1Nc1ncc2cc(-c3c(Cl)c(OC)cc(OC)c3Cl)ccc2n1 [BLU9931, reference compound] |  |  | could inhibit FGF19-induced FGFR4 and FRS2 phosphorylation
